Measured values taken from the supplement of paper PMC9876800.

System: peptide library, one residue held at a place counted from the S/T acceptor
Test: relative phosphorylation of the sub-library (ratio to the mean residue at this position); higher = residue favoured
Summary of the method: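 Purified recombinant kinases (human or orthologue constructs) were incubated in 384-well plates with biotinylated degenerate peptide sub-libraries, each fixing one residue at one position around a central Ser/Thr. Peptides were at 50 μM, with 50 μM ATP spiked with γ-32P-ATP, for 90 min under kinase-specific conditions. Spots on streptavidin membranes were phosphorimaged and quantified by densitometry. Relative sub-library phosphorylation is a ratio to the mean residue at that position.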

Sequence of MAP3K21, construct: aa98-451, human (Q5TCX8 98-451, looked up): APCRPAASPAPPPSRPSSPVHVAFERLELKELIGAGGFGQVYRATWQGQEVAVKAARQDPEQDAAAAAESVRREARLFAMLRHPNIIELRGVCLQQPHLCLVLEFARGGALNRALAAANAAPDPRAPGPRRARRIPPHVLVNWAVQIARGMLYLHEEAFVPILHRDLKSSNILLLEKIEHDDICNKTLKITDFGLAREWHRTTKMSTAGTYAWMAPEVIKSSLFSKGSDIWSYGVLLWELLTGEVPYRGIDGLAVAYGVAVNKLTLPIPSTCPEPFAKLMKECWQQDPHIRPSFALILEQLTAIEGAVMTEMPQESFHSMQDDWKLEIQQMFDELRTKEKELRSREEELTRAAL
Sequence of MAPK7, construct: aa1-405, human (Q13164 1-405, looked up): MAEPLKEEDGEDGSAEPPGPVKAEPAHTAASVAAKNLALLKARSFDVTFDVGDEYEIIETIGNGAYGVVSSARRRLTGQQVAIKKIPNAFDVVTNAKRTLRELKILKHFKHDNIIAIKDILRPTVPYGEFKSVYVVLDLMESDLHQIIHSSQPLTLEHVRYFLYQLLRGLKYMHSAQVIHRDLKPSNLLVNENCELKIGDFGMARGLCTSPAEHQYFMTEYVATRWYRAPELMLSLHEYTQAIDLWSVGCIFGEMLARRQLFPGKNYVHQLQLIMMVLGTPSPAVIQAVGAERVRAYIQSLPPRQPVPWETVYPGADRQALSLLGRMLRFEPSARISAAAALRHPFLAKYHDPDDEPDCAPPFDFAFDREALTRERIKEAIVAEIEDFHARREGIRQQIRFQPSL

MAP3K21, construct: aa98-451, human (from UniProt Q5TCX8)
relative phosphorylation
Conditions | at +1 | at +2 | at +3 | at +4 | at -1 | at -2 | at -3 | at -4 | at -5
A fixed | 0.66 | 0.456 | 0.721 | 0.893 | 0.777 | 0.912 | 0.933 | 1.05 | 1.07
D fixed | 0.244 | 0.223 | 0.462 | 0.682 | 1.23 | 1.55 | 1.72 | 1.84 | 1.8
E fixed | 0.435 | 0.323 | 0.508 | 0.676 | 0.821 | 1.43 | 1.97 | 1.81 | 1.63
F fixed | 1.52 | 0.38 | 1.08 | 0.633 | 0.875 | 1.02 | 0.789 | 0.676 | 0.82
G fixed | 0.585 | 0.397 | 0.796 | 1.11 | 0.386 | 0.992 | 1.17 | 1.37 | 1.24
H fixed | 1.21 | 2.1 | 1.61 | 1.16 | 1.46 | 1.19 | 1.19 | 1.12 | 1.06
I fixed | 1.28 | 0.502 | 0.71 | 0.622 | 0.534 | 0.537 | 0.406 | 0.49 | 0.485
K fixed | 1.25 | 2.23 | 1.52 | 2.18 | 1.03 | 0.356 | 0.702 | 0.83 | 1.03
L fixed | 0.726 | 0.507 | 1.14 | 0.58 | 0.711 | 0.699 | 0.545 | 0.513 | 0.609
M fixed | 1.61 | 0.467 | 0.881 | 0.722 | 0.914 | 1.04 | 0.806 | 0.818 | 0.654
N fixed | 0.62 | 0.624 | 0.829 | 0.871 | 1.43 | 1.18 | 1.22 | 1.16 | 1.01
P fixed | 0.185 | 0.18 | 0.398 | 1.46 | 0.679 | 1.85 | 1.19 | 1.19 | 1.08
Q fixed | 1.16 | 0.88 | 0.849 | 1.16 | 1.02 | 1.05 | 1.16 | 0.968 | 0.99
R fixed | 1.92 | 3.75 | 1.87 | 2.13 | 1.4 | 0.593 | 0.817 | 0.902 | 1.13
V fixed | 1.98 | 0.426 | 0.81 | 0.753 | 0.875 | 0.52 | 0.496 | 0.595 | 0.682
W fixed | 0.707 | 1.91 | 1.41 | 0.702 | 1.19 | 0.909 | 0.872 | 0.886 | 0.825
Y fixed | 0.907 | 1.65 | 1.41 | 0.661 | 1.67 | 1.18 | 1.02 | 0.779 | 0.886
pThr fixed | 1.13 | 0.418 | 0.664 | 0.851 | 0.803 | 1.09 | 1.84 | 1.28 | 1.35
pTyr fixed | 0.604 | 0.427 | 0.692 | 0.519 | 1.83 | 1.01 | 1.17 | 1.11 | 1.22

MAPK7, construct: aa1-405, human (from UniProt Q13164)
relative phosphorylation
Conditions | at +1 | at +2 | at +3 | at +4 | at -1 | at -2 | at -3 | at -4 | at -5
A fixed | 5.25 | 0.808 | 0.997 | 0.943 | 0.957 | 0.867 | 1.2 | 1.21 | 1.14
D fixed | 0.374 | 0.579 | 0.866 | 1.2 | 0.745 | 0.491 | 0.862 | 1.11 | 0.83
E fixed | 0.338 | 0.519 | 0.827 | 0.951 | 0.646 | 0.484 | 0.872 | 1.12 | 0.81
F fixed | 0.47 | 0.908 | 0.941 | 0.922 | 0.956 | 0.658 | 0.778 | 0.919 | 1.03
G fixed | 1.67 | 1 | 1.14 | 1.08 | 0.808 | 0.666 | 1.08 | 1.09 | 0.977
H fixed | 0.466 | 0.917 | 0.886 | 1.05 | 1.28 | 0.568 | 0.822 | 0.913 | 1.07
I fixed | 0.372 | 1.08 | 1.45 | 0.998 | 0.684 | 1.43 | 0.988 | 0.891 | 1.02
K fixed | 0.449 | 1.24 | 0.59 | 0.947 | 0.834 | 0.797 | 0.827 | 0.943 | 0.988
L fixed | 0.54 | 1.02 | 1.27 | 0.918 | 1.61 | 2.64 | 1.07 | 0.938 | 1.06
M fixed | 0.523 | 1.08 | 1.12 | 0.993 | 1.66 | 1.91 | 1.13 | 0.976 | 0.986
N fixed | 0.464 | 0.963 | 0.789 | 0.8 | 0.948 | 0.61 | 1.06 | 0.954 | 1
P fixed | 3.79 | 0.758 | 1.13 | 1.04 | 1.13 | 2.1 | 1.87 | 1.16 | 1.03
Q fixed | 0.438 | 0.927 | 0.818 | 1.07 | 1.02 | 0.928 | 0.926 | 0.941 | 0.867
R fixed | 0.471 | 2 | 0.794 | 0.939 | 0.983 | 0.695 | 1.04 | 0.894 | 1.11
V fixed | 0.426 | 1.16 | 1.08 | 0.975 | 0.69 | 0.986 | 0.96 | 0.982 | 1.01
W fixed | 0.534 | 1.1 | 1.2 | 1.21 | 0.844 | 0.631 | 0.791 | 1.03 | 0.892
Y fixed | 0.429 | 0.945 | 1.1 | 0.97 | 1.2 | 0.533 | 0.737 | 0.931 | 1.18
pThr fixed | 0.632 | 0.779 | 0.702 | 0.863 | 0.541 | 0.976 | 0.946 | 1.07 | 0.901
pTyr fixed | 0.518 | 0.587 | 0.989 | 0.835 | 0.945 | 0.815 | 1.02 | 1.11 | 1.04
